Where two headings read alike, the source gives them in different places.
T1: a subunit of Thermus thermophilus V/A-ATPase (Thermus thermophilus, UniProt Q5SIT6 1-652)
T1 sequence (looked up): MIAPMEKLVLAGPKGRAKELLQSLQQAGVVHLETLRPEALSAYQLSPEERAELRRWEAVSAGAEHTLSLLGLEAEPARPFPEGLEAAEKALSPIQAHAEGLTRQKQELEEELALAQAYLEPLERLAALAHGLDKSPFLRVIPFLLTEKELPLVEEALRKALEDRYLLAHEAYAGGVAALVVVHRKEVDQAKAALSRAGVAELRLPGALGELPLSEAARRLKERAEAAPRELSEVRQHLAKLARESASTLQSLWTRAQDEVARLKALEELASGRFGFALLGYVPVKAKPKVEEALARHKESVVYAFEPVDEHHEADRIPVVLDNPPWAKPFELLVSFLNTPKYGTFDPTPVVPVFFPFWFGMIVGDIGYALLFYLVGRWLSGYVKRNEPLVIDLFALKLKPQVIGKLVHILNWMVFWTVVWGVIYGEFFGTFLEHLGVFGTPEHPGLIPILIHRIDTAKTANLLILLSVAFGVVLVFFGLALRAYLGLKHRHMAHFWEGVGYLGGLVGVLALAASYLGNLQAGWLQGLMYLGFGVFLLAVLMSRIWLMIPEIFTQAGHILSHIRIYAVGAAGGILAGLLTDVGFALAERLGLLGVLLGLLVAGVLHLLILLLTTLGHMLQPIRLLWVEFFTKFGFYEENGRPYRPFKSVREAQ

B1: d subunit of Thermus thermophilus V/A-ATPase (natural protein, UniProt P74902 1-323, looked up)
chain: MADDFAYLNARVRVRRGTLLKESFFQEALDLSFADFLRLLSETVYGGELAGQGLPDVDRAVLRTQAKLVGDLPRLVTGEAREAVRLLLLRNDLHNLQALLRAKATGRPFEEVLLLPGTLREEVWRQAYEAQDPAGMAQVLAVPGHPLARALRAVLRETQDLARVEALLAKRFFEDVAKAAKGLDQPALRDYLALEVDAENLRTAFKLQGSGLAPDAFFLKGGRFVDRVRFARLMEGDYAVLDELSGTPFSGLSGVRDLKALERGLRCVLLKEAKKGVQDPLGVGLVLAYVKEREWEAVRLRLLARRAYFGLPRAQVEEEVVCP
B2: D subunit of Thermus thermophilus V/A-ATPase (natural protein, UniProt O87880 1-223, looked up)
chain: MSQVSPTRMNLLQRRGQLRLAQKGVDLLKKKRDALVAEFFGLVREAMEARKALDQAAKEAYAALLLAQAFDGPEVVAGAALGVPPLEGVEAEVENVWGSKVPRLKATFPDGALLSPVGTPAYTLEASRAFRRYAEALIRVANTETRLKKIGEEIKKTTRRVNALEQVVIPGIRAQIRFIQQVLEQREREDTFRLKRIKGKIEAREAEEEGGRPNPQVEIGAGL

Experiments:
Assay in all cases: cryo-EM structure
[1] = target: c subunit of Thermus thermophilus V/A-ATPase, His3-tagged (Thermus thermophilus) (UniProt Q5SIT7)
[2] = target: c subunit of Thermus thermophilus V/A-ATPase, His3-tagged (Thermus thermophilus) (UniProt Q5SIT7); remark: listed apart in the source
[3] = target: T1, a subunit of Thermus thermophilus …
[4] = target: B1

## c subunit of Thermus thermophilus V/A-ATPase, His3-tagged (from UniProt Q5SIT7 1-99) (natural protein)
[1]
  stoichiometry N: 12
[2]
  stoichiometry N: 12

## B1
[3]
  binding result: binds

## B2
[4]
  binding result: binds

Reference: publication doi:10.1101/2020.02.13.946640 (bioRxiv, 2020)
